# Measured values as given in article PMC3764424, “High-resolution Structural and Thermodynamic Analysis of Extreme Stabilization of Human Procarboxypeptidase by Computational Protein Design” (Journal of Molecular Biology, 2007).
# Target: the molecule itself
# Experiment: AUC; sedimentation equilibrium, 20 °C, 25 mM Tris-HCl pH 8.0, 50 mM NaCl with and without 20 mM EDTA; 13, 33 and 50 μM protein; 25,000, 35,000 and 45,000 rpm; monomer-dimer model, dimer to monomers
protein,measurement,value
AYEdes (N-terminal His6 tag followed only by the 70 designed residues of AYEdesign) (other) KTIFVIVPTNEEQVAFLEALAKQDELNFDWQNPPTEPGQPVVILIPSDMVEWFLEMLKAKGIPFTVYVEE,Kd,~150 µM
